Non-standard residues stand in square brackets, D forms with d. No end group written: not given here. *: point of attachment. NMeF = CN[C@@H](Cc1ccccc1)C(=O)O; NHCH2CH2OH = OCCN*
Tests used:
human µ opiate receptor [1] = target: human µ opiate receptor (human); assay: displacement of [3H]DAMGO from COS cells expressing hµOR1; 'low affinities of less than 100 nM' is read as weaker than 100 nM
Procedure: (§1) COS cells were transfected by electroporation with 20 µg/10^7 cells of plasmid pcDNA1hµOR1, grown for two to three days and tested for opiate receptor expression by radioligand binding as described, except that whole cell suspensions were used. Adenyl cyclase activities were assessed by radioimmunoassay as described. Cells transfected with the pcDNA1 vector alone served as negative controls.

human µ opiate receptor [2] = target: human µ opiate receptor (human); assay: [3H]DAMGO binding to COS cells expressing hµOR1, with against without 50 µM Gpp(NH)p
Procedure: as §1

human µ opiate receptor [3] = target: human µ opiate receptor (human); assay: saturation radioligand binding, whole COS cells transfected with pcDNA1hµOR1
Procedure: as §1

human µ opiate receptor [4] = target: human µ opiate receptor (human); assay: [3H]DAMGO binding to COS cells expressing hµOR1, with sodium chloride as low as 5 mM; CLM-00019 ties this to DAMGO
Procedure: as §1

human µ opiate receptor [5] = target: human µ opiate receptor (human); assay: displacement of [3H]DAMGO from COS cells expressing hµOR1; paragraph 40 says 'low affinities', CLM-00014 calls the value a KD
Procedure: as §1

In the case of YXGFX (D-penicillamine at 2 and at 5 (written X)) [DPDPE (D-pen^2, D-pen^5 enkephalin)], the Kd (human µ opiate receptor [1]) is reported as > 100 nM.

B1: (D-ala^2, N-methyl-phe^4, glyol^5) enkephalin (peptide)
peptide: Y[dA]G[NMeF][NHCH2CH2OH]
modifications: not fully specified (C-terminus); printed as (D-ala^2, N-methyl-phe^4, glyol^5) enkephalin; also: [3H] label in binding assays
In the case of B1, the “fold reduction of affinity with 50 µM Gpp(NH)p” value (human µ opiate receptor [2]) is reported as > 3 fold, the Kd (human µ opiate receptor [3]) is reported as 1.2 nM and the “fold reduction of binding affinity with 5 mM sodium chloride” value (human µ opiate receptor [4]) is reported as 2 fold.

Binder YGGFLRRIRPKLKWDNQ [dynorphin A 1-17] has a Kd (human µ opiate receptor [5]) of 284 nM.

Source: patent publication US6258556, “cDNA and genomic clones encoding human µ opiate receptor and the purified gene product” (The United States of America as represented by the …, dated 2001)
